The text below walks through data of article PMC4703387, “Identification of the Calmodulin-Binding Domains of Fas Death Receptor” (PLoS ONE, 2016).

In experiment [1] the target is calmodulin, calcium-bound (Ca2+/CaM) (UniProt P0DP23). Description: SEC; Superdex 75 (10/300 GL), 50 mM Tris pH 7.0, 100 mM NaCl, 5 mM CaCl2; samples ~50-150 uM; fractions by SDS-PAGE; calibration with a low molecular weight kit. In general terms: Size exclusion chromatography separates by hydrodynamic size, large species first.
The target of experiment [2] is calmodulin (Homo sapiens) (UniProt P0DP23). The conditions noted are these: cited from earlier work.
Experiment [3] deals with Fas-Pep1 (FasDD residues 209-239). Put plainly: ITC; Ca2+/CaM at 450 uM titrated into Fas-Pep1 at 25 uM, 25°C, 50 mM HEPES pH 7.0, 100 mM NaCl, 5 mM CaCl2; single set of identical sites. In general terms: Isothermal titration calorimetry measures the heat released or taken up as one component is titrated into another.
Experiment [4] concerns the target Fas-Pep2 (FasDD residues 251-288). Put plainly: ITC; Ca2+/CaM at 195 uM titrated into Fas-Pep2 at 17 uM, 35°C, 50 mM HEPES pH 7.0, 100 mM NaCl, 5 mM CaCl2; single set of identical sites.
Experiment [5] concerns the target calmodulin (Homo sapiens) (UniProt P0DP23). The note with it: cited from earlier work. This is another data set of the same source.

Like-named read-outs stand apart in the source and are kept apart here.

As usually defined, the stoichiometry N is a count of units in the complex or per binding partner. With “Fas-Pep2 (FasDD residues 251-288) (peptide)”, the stoichiometry N in experiment [1] amounted to 1.

Turning to “Fas-Pep1 (FasDD residues 209-239) (peptide)”, in experiment [1], the stoichiometry N is 1.

The Kd is a measure of binding affinity in units of concentration. For the substance “Fas death domain peptide 214-238 (from UniProt P25445)”, the Kd in experiment [2] is 19500 nM.

With “calmodulin, calcium-bound (Ca2+/CaM) (from UniProt P0DP23 1-149) (natural protein)”, in experiment [3], the Kd came to 300 nM, the dH came out at 2.15 kcal/mol and the stoichiometry N worked out at 0.95. In experiment [4], this substance showed a Kd of 1100 nM, a dH of -14.2 kcal/mol and a stoichiometry N of 0.9.

For the substance “Fas death domain death domain (from UniProt P25445)”, in experiment [5], the Kd is 2000 nM.
